# Laboratory results as given in patent publication US5574007A, “Polypeptide capable of interacting with thrombin” (Asahi Kasei Kogyo Kabushiki Kaisha, priority 1990, dated 1996).
# Tests used:
# [1] = target: T1, thrombin-catalyzed activation of GDPC (protein C having no Gla domain) (Homo sapiens, UniProt P00734); test: Same assay with protein C having no Gla domain (GDPC) instead of protein C; type: biochemical; conditions: calcium ion concentrations of 0 to 5 mM
# T1 construct: 3 μl of thrombin (manufactured and sold by Sigma Chemical Company, catalog No. T-6759, 20 ng/μl); purchased Sigma Chemical Company T-6759
# Experimental: (§1) With respect to the polypeptide solutions (0.4 μg/ml) purified and quantitated in Example 1-(5)-(d), the activity of polypeptides to promote the thrombin-catalyzed activation of protein C is measured according to the method described in Example 1-(3). The CaCl2 concentration of 10×Assay buffer is adjusted so that the activities at calcium ion concentrations of 0 to 5 mM are determined. Also, with respect to protein C having no Gla domain (hereinafter referred to as "GDPC") which is prepared by chymotrypsin treatment according to the method of N. L. Esmon [J. Biol. Chem. Vol. 258, pp. 5548-5553 (1983)]and which is used instead of protein C, the activity measurement is carried out within the same range of calcium concentration.
# [2] = target: T2, thrombin-catalyzed activation of protein C (Homo sapiens, UniProt P00734); test: Activity to promote the activation of protein C (Example 9-(4)); type: biochemical; conditions: peptide solution 10 nM, thrombin 15 nM, protein C 3.2 μM, 37° C., one hour
# Experimental: With respect to the polypeptide purified in Example 9-(3), the activity to promote the activation of protein C is measured according to the following method. That is, 10 μl of a peptide solution (10 nM), 10 μl of thrombin (15 nM), 10 μl of protein C (3.2 μM), 10 μl of 10×Assay buffer [0.5M Tris HCl (pH 7.5) containing 1% BSA, 1M NaCl and 20 mM CaCl2 ] and 60 μl of distilled water are mixed together. The mixture is reacted at 37° C. for one hour, and antithrombin III and hepalin are added at final concentrations of 100 nM and lu/ml, respectively, thereby stopping the reaction. To measure the concentration of activated protein C, the concentration of AMC ([…]) liberated from a 200 μM substrate of Boc-Leu-Ser-Thr-Arg-MCA in a buffer containing 0.05M Tris HCl (pH 8.0) and 0.1M CsCl is measured at an excitation wavelength of 380 nm and a measuring wavelength of 440 nm.
# [3] = target: T2, thrombin-catalyzed activation of protein C; test: Assay of the activity to promote the thrombin-catalyzed activation of protein C (Example 1-(3), fluorogenic substrate Boc-Leu-Ser-Thr-Arg-MCA); type: biochemical, bovine; parameters: 3 μl of thrombin (manufactured and sold by Sigma Chemical Company, catalog No. T-6759, 20 ng/μl); purchased Sigma Chemical Company T-6759; conditions: for calcium ion concentration at which the activity is highest: activation of protein C, calcium ion 0 to 5 mM; for activity to promote the thrombin-catalyzed activation of protein C (in words): purified polypeptide from COS-1, calcium ion concentrations of 0 to 5 mM; for amount of activated protein C with reaction time (in words): from D71 strain
# Experimental: 5 μl of the supernatant of the culture of COS-1 cells is transformed by each of plasmids pSV2TMD7 and pSV2TMD8, 3 μl of thrombin (manufactured and sold by Sigma Chemical Company, catalog No. T-6759, 20 ng/μl), 5 μl of 10×Assay Buffer containing 1M NaCl, 30 mM CaCl2, 1% calf serum albumin and 0.5M tris-HCl buffer (pH 8.5) and 29.5 μl of distilled water are mixed together and allowed to stand at 37° C. for 5 minutes, followed by the addition of 7.5 μl protein C (derived from bovine, 0.2 μg/μl) to the mixture. The reaction is conducted at 37° C. for 30 minutes, and terminated by adding 6.25 μl of a stop solution (20 mM tris-HCl buffer, pH7.5, containing 100 mM NaCl, 0.3A280 anti-thrombin III and 100 μg/ml heparin).
# The activity of activated protein C is measured by first adding 10 μl of Boc-Leu-Ser-Thr-Arg-MCA (manufactured and sold by Peptide Institute, The Foundation (Japan), 5 mg/ml), 5 μl of 5M CsCl and 495 μl of a substrate reaction buffer (50 mM tris-HCl buffer containing 100 mM NaCl (pH 8.5)), next allowing the reaction to proceed at 37° C. for 20 minutes, then terminating the reaction by adding 55 μl of acetic acid, and finally measuring the concentration of liberated AMC ([…]) by means of a spectrofluorometer (model RF-540, manufactured and sold by Shimadzu Corporation, Japan) at an excitation wavelength of 380 nm and an emission wavelength of 440 nm. The obtained fluorescence intensity is compared with the fluorescence intensity of a solution having a known AMC concentration to determine the amount of the liberated AMC. The value obtained by deducting from this amount the amount of AMC in the case where an aqueous solution containing no polypeptide of the present invention is added, represents the activity of the polypeptide to promote the thrombin-catalyzed activation of protein C. The activity to produce 1 nM of activated protein C per ml of reaction mixture and per minute is defined as 1 u (unit).
# as §1
# [4] = target: T2, thrombin-catalyzed activation of protein C; test: Activated protein C formation against reaction time with purified polypeptide (Example 4-(6)); type: biochemical; conditions: polypeptide purified from Acremonium chrysogenum strains D71 and M31 (Example 6(4))
# Experimental: To 0.02M Tris-HCl buffer (pH 8.5) containing 0.1M NaCl, 0.5 mM CaCl2 and 10 mg/ml BSA are added 50 μg/ml protein C, 5 nM thrombin and 5 nM of each of the purified polypeptides of the present invention, and reacted at 37° C. To each of the reaction mixtures are added 300 μg/ml antithrombin III (manufactured and sold by Sigma Chemical Company, U.S.A.) and 5 mM EDTA to terminate the reaction. Then, the amount of the activated protein C produced by the reaction is determined by the method described in Example 1-(3) in which a synthetic substrate is used.
# [5] = target: thrombin-catalyzed conversion of fibrinogen to fibrin (Homo sapiens, UniProt P00734); test: Anticoagulating activity: clotting time of a fibrinogen solution; type: biochemical; conditions: polypeptide purified from Acremonium chrysogenum (Example 6(4))
# Experimental: The activity of each of the polypeptides of the present invention to inhibit the thrombin-catalyzed conversion of fibrinogen to fibrin so as to inhibit blood coagulation, is determined by measuring clotting time using Coagulometer KC-10A (manufactured and sold by Heinrich Amelung A.G., Germany). Illustratively stated, to 0.05M Tris-HCl buffer (pH 7.5) containing 5 mM CaCl2 and 0.1M NaCl is added 3.0 μg of fibrinogen (Fraction I, manufactured and sold by Sigma Chemical Company, U.S.A.). To the resultant mixture is added 0 to 50 nM of each of the purified polypeptides of the present invention. Then, 10 nM thrombin is added to the mixture in such an amount that the total amount of the mixture becomes 0.4 ml, and then the coagulation time of the mixture is measured.
# [6] = test system: thrombin-catalyzed platelet aggregation; test: Platelet aggregation-inhibiting activity (Platelet Rich Plasma, HEMA TRACER IV); type: cell-based; conditions: polypeptide purified from Acremonium chrysogenum (Example 6(4))
# Experimental: The activity of each of the polypeptides of the present invention to inhibit the thrombin-catalyzed platelet aggregation is evaluated using platelet aggregation measuring apparatus HEMA TRACER IV (manufactured and sold by NIKO Bioscience, Inc., Japan). Measurement is carried out according to the manual attached thereto. When 40 μl of a 20 NIH unit/ml thrombin solution (manufactured and sold by SIGMA Chemical Co., U.S.A., T 6759) is added to 180 μl of a Platelet Rich Plasma (PRP) platelet solution (3×10^5 cells/μl) and incubated, the aggregation of platelets occurs. […] The aggregation of platelets is determined on the basis of the transparency, assuming the transparency of Platelet Poor Plasma (PPP) solution as 100%. The ratio of platelet aggregation is plotted against the incubation time (0 min: the time when thrombin or a mixture of thrombin and one of the polypeptides is added to the PRP solution). It is confirmed that the platelet aggregation is inhibited when one of the polypeptides of the present invention is added.
Substance,activity in the activation of GDPC (in words) [1],production of activated protein C [2],calcium ion concentration at which the activity is highest [3],activity to promote the thrombin-catalyzed activation of protein C (in words) [3],amount of activated protein C with reaction time (in words) [4],clotting time of fibrinogen solution against amount of polypeptide (in words) [5],thrombin-catalyzed platelet aggregation (in words) [6],"Specific activity ([3]; COS-1 culture supernatant, activity per amount of polypeptide by ELISA)",specific activity (in words) ([3]; deletion mutants expressed in COS-1 cells),amount of activated protein C with reaction time (in words) ([3]; purified by DIP-thrombin column (Example 8(2))),amount of activated protein C with reaction time (in words) ([3]; purified by anti-TM monoclonal antibody column 1 (Example 8(4))),amount of activated protein C with reaction time (in words) ([3]; purified by anti-TM monoclonal antibody column 2 (Example 8(5))),"Activity ([3]; supernatant of culture of COS-1 cells transformed with the plasmid, 1 u = 1 nM activated protein C per ml per minute)"
"D123Asp: polypeptide of amino acid residues up to the 516th position of human thrombomodulin (FIG. 55), expressed from pSV2TMD1",low activity,18.6 pmol,0.4 to 0.5 mM,high activity,–,–,–,–,–,–,–,–,–
"E456Asp: polypeptide of the 367th to 480th amino acid residues of human thrombomodulin, from cells transfected with pSV2TMD7 or Acremonium strain D71",low activity,18.3 pmol,0.4 to 0.5 mM,high activity,increased with the lapse of reaction time,the longer the clotting time,inhibited,5809 u/mg,same level of specific activity as that of the 115-amino acid polypeptide,increased with the lapse of the reaction time,increased with the lapse of reaction time,increased with lapse of reaction time,1210 u/ml
